Four substances from US7897573B2, “Selective VPAC2 receptor peptide agonists” (priority 2005, dated 2011) can be followed below.

Where no end group is shown, it is not given here.

Data set [1] is described as follows: Pharmacokinetic profiles of PEGylated peptides in Fisher 344 rats. The class given is in vivo, rat. Conditions: 100 μg agonist/kg, plasma RIA, mean N = 3. In short, it runs like this:
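Healthy rats (n=3/group) received 100 μg agonist/kg in PBS, dose based on peptide content; route not given. Plasma sampled 3–168 h post-dose, peptide quantified by N-terminal-directed RIA, PK parameters derived by model-independent analysis.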

In a further data set the target is T1, Human VPAC1 Receptor (Homo sapiens, UniProt P32241).
T1 construct: expressed in transfected cells
T1 sequence (P32241 31-457): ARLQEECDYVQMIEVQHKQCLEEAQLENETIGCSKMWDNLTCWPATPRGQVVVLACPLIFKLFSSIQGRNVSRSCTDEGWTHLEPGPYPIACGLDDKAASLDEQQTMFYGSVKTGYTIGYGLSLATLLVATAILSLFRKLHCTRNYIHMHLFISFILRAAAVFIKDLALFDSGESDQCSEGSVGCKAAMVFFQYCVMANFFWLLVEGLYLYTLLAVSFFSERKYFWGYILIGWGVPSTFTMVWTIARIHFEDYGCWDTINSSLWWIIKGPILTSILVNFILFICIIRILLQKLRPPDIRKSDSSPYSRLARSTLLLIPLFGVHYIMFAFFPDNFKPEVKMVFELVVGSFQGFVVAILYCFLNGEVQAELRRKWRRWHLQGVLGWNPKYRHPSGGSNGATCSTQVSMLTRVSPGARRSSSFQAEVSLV
Nature of the data set: Filter binding assay, 125I-labeled VIP, membranes of cells transiently transfected with human VPAC1. Conditions: 125I-labeled VIP tracer.

The nature of data set [2]: Rat serum stability study (DiscoveRx cAMP read-out on CHO-VPAC2 cells). Conditions: EC50, 4° C./EC50, 37° C., values >100% may represent release of intact peptide from the PEG conjugate; for 24 h stab (%): 24 h in rat serum at 37° C.; for 72 h stab (%): 72 h in rat serum at 37° C.
A further data set deals with Normal Wistar rats. Put plainly: Intravenous glucose tolerance test (IVGTT). Format: in vivo, rat. Conditions: for insulin response to the i.v. glucose challenge: FIG. 1, animals treated 24 h prior to the glucose injection, versus vehicle-treated animals. Here is the method:
Intravenous glucose tolerance test (IVGTT): Normal Wistar rats are fasted overnight and are anesthetized prior to the experiment. A blood sampling catheter is inserted into the rats. The agonist is given subcutaneously, normally 24 h prior to the glucose challenge. Blood samples are taken from the carotid artery. A blood sample is drawn immediately prior to the injection of glucose along with the agonist. After the initial blood sample, glucose mixed is injected intravenously (i.v.). A glucose challenge of 0.5 g/kg body weight is given, injecting a total of 1.5 mL vehicle with glucose and agonist per kg body weight. The peptide concentrations are varied to produce the desired dose in μg/kg. Blood samples are drawn at 2, 4, 6 and 10 minutes after giving glucose. The control group of animals receives the same vehicle along with glucose, but with no agonist added. In some instances, 20 and 30 minute post-glucose blood samples were drawn. Aprotinin is added to the blood sample (250-500 kIU/ml blood). The plasma is then analyzed for glucose and insulin using standard methodologies.
The assay uses a formulated and calibrated peptide stock in PBS. Normally, this stock is a prediluted 100 μM stock. However, a more concentrated stock with approximately 1 mg agonist per mL is used. The specific concentration is always known. Variability in the maximal response is mostly due to variability in the vehicle dose.

The target in another data set is T2, Human PAC1 Receptor (Homo sapiens, UniProt P41586).
T2 construct: expressed in transfected cells
T2 sequence (P41586 21-468): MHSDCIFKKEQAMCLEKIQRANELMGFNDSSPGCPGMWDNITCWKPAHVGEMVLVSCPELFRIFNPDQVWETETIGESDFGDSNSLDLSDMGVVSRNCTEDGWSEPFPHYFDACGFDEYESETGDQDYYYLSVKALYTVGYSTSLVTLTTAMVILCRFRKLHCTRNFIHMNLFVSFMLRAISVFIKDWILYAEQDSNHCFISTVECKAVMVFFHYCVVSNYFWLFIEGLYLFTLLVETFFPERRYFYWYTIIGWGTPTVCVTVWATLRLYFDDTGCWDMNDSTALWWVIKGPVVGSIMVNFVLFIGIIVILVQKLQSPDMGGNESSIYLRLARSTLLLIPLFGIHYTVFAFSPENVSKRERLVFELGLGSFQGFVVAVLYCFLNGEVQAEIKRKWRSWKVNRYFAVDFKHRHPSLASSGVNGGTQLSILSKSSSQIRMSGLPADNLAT
Nature of the data set: Filter binding assay, 125I-labeled PACAP-27, membranes of cells transiently transfected with human PAC1. Conditions: 125I-labeled PACAP-27 tracer. Here is the method:
For this assay, the solutions and equipment include:
Presoak solution: 0.5% Polyethyleneamine in Aqua dest
Buffer for flushing filter plates: 25 mM HEPES pH 7.4
Blocking buffer: 25 mM HEPES pH 7.4; 0.2% protease free BSA
Assay buffer: 25 mM HEPES pH 7.4; 0.5% protease free BSA
Dilution and assay plate: PS-Microplate, U form
Filtration Plate Multiscreen FB Opaque Plate; […] Type B Glasfiber filter
In order to prepare the filter plates, the presoak solution is aspirated by vacuum filtration. The plates are flushed twice with 200 μL flush buffer. 200 μL blocking buffer is added to the filter plate. The filter plate is then incubated with 200 μL presoak solution for 1 hour at room temperature.
The assay plate is filled with 25 μL assay buffer, 25 μL membranes (2.5 μg) suspended in assay buffer, 25 μL agonist in assay buffer, and 25 μL tracer (about 40000 cpm) in assay buffer. The filled plate is incubated for 1 hour with shaking.
The transfer from assay plate to filter plate is conducted. The blocking buffer is aspirated by vacuum filtration and washed two times with flush buffer. 90 μL is transferred from the assay plate to the filter plate. The 90 μL transferred from assay plate is aspirated and washed three times with 200 μL flush buffer. The plastic support is removed. It is dried for 1 hour at 60° C. 30 μL Microscint is added. The count is performed.

The mark [3] stands for this setting: AUC insulin, 0-10 min after glucose, 24 h between glucose & compound, Wistar rats.

With “C6-HSDAVFTEQY(OMe)TOrnLRAibQLAAbuAibOrnYAibQAibIOrnOrnGGPSSGAPPPC(PEG20K)C(PEG20K)-NH2 (HSDAVFTEQYTXLRXQLAXXXYXQXIXXGGPSSGAPPPCC; C6 acyl, two PEG20K, C-terminal amide; Synthetic sequence PEGylated VPAC2 receptor agonist) [Agonist P525]”, in data set [1], the AUC0-last amounted to 4740 ng·h/mL; the Cl/F was determined as 0.333 mL/min/kg; the Cmax – broadly, the highest concentration seen after dosing – is on record as 133 ng/mL; the Tmax (usually the time at which the peak concentration occurs) worked out at 16 h. Moreover, in data set [1], the T½ stood at 22 h. The IC50 – broadly, the concentration that inhibits the measured activity by half – with Human VPAC1 Receptor was > 25000 nM. Moreover, in data set [2], the “24 h stab (%)” value is given as 298% and the “72 h stab (%)” value is recorded as 353%. In the data set with Normal Wistar rats (setting [3]), the “% increase AUC: Dose = 0.1 mg/kg” value stood at 72% and the “% increase AUC: Dose = 0.3 mg/kg” value is 208%. In the data set with Normal Wistar rats, the “insulin response to the i.v. glucose challenge” value was “enhancement of the insulin response”. In the data set with Human PAC1 Receptor, the IC50 is > 25000 nM.

As to “C6-HSDAVFTEQY(OMe)TOrnLRAibQLAAbuAibOrnyAibQSIOrnOrnGGPSSGAPPPC(PEG30K)C(PEG30K)-NH2 (HSDAVFTEQYTXLRXQLAXXXYXQSIXXGGPSSGAPPPCC; not fully specified (some residues, N-terminus, C-terminus); printed as C6-HSDAVFTEQY(OMe)TOrnLRAibQLAAbuAibOrnyAibQSIOrnOrnGGPSSGAPPPC(PEG30K)C(PEG30K)-NH2; cysteine pairing not given here) [Agonist P602]”, the IC50 in the data set with Human VPAC1 Receptor and with Human PAC1 Receptor was > 25000 nM throughout. The “24 h stab (%)” value in data set [2] is listed as 573%. The “% increase AUC: Dose = 0.09 mg/kg” value in the data set with Normal Wistar rats (AUC insulin, 0-10 min after glucose, 0.09 mg/kg, 24 h between glucose & compound, Wistar rats) amounted to 73%. Also, the “% increase AUC: Dose = 0.3 mg/kg” value with Normal Wistar rats (setting [3]) was 198%.

With “C6-HSDAVFTEQY(OMe)TOrnLRAibQVAAAibOrnYLQSIOrnC(PEG20K)OrnGGPSSGAPPPC(PEG20K)-NH2 (HSDAVFTEQYTXLRXQVAAXXYLQSIXCXGGPSSGAPPPC; C6 acyl, two PEG20K, C-terminal amide; Synthetic sequence PEGylated VPAC2 receptor agonist) [Agonist P505]”, in data set [1], the AUC0-last stood at 7006 ng·h/mL, the Cl/F came out at 0.217 mL/min/kg, the Cmax was 160 ng/mL and the Tmax is on record as 12 h. The T½ in data set [1] amounted to 22 h. In addition, in the data set with Human VPAC1 Receptor, the IC50 is > 25000 nM. Further, in data set [2], the “24 h stab (%)” value came to 133% and the “72 h stab (%)” value was found to be 161%. In the data set on Normal Wistar rats (setting [3]), the “% increase AUC: Dose = 0.1 mg/kg” value is listed as 12% and the “% increase AUC: Dose = 0.3 mg/kg” value came to 74%. Moreover, in the data set on Normal Wistar rats, the “insulin response to the i.v. glucose challenge” value is given as “enhancement of the insulin response”. Moreover, the IC50 in the data set with Human PAC1 Receptor is > 25000 nM.

For “C6-HSDAVFTEQY(OMe)TOrnLRAibQVAAbuAibOrnYLQAibIOrnOrnGGPSSGAPPPC(PEG40K)-NH2 (HSDAVFTEQYTXLRXQVAXXXYLQXIXXGGPSSGAPPPC; C6 acyl, PEG40K on Cys, C-terminal amide; Synthetic sequence PEGylated VPAC2 receptor agonist) [Agonist P511]”, in data set [1], the AUC0-last was 3067 ng·h/mL, the Cmax turned out to be 100 ng/mL and the time of peak concentration (Tmax) stood at 16 h. Also, the IC50 in the data set with Human VPAC1 Receptor is > 25000 nM. Further, in the data set on Normal Wistar rats (setting [3]), the “% increase AUC: Dose = 0.1 mg/kg” value is listed as 38% and the “% increase AUC: Dose = 0.3 mg/kg” value was determined as 59%. The IC50 with Human PAC1 Receptor is > 25000 nM.
